Experiments:
Settings in all cases: protein: recombinant; label: 32P-CTP; hairpin
[1] = target: T1, hIRP1 (GST fusion) (human, UniProt P21399 1-889); assay: EMSA; 2 mM Mg2+; 5.2 nM RNA; mean of 3 experiments; 10 mM HEPES pH 7.6, 2 mM MgCl2, 40 mM KCl, 5% glycerol, 1 mM DTT, 20 uL, room temperature 30 min, […] (7%/14%) […]
T1 sequence: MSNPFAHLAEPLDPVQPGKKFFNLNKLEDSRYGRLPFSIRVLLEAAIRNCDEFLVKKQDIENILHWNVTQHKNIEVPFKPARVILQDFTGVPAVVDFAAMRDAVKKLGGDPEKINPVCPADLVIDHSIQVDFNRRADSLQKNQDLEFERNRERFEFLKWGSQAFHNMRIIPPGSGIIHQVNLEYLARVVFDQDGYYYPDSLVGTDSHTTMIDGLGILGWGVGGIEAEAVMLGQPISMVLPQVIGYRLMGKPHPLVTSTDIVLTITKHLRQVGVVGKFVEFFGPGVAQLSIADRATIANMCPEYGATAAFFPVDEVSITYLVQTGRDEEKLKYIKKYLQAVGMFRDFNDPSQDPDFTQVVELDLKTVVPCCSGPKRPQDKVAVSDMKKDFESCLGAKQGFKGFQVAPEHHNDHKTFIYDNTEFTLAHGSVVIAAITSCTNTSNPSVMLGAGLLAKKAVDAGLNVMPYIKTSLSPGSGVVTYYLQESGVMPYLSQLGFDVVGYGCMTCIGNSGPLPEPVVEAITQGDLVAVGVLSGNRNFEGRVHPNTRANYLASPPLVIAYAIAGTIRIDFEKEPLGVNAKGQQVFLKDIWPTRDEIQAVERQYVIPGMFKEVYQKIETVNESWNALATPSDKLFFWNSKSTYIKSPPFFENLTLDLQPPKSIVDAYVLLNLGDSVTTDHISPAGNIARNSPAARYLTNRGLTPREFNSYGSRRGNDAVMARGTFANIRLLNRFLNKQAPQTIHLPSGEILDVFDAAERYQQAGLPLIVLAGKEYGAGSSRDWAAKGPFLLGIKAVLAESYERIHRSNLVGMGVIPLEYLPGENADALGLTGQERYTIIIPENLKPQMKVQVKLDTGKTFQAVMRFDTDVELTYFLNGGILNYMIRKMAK

[2] = target: T1, hIRP1 (GST fusion); assay: EMSA; 2 mM Mg2+; 5.2 nM RNA; data not shown; 10 mM HEPES pH 7.6, 2 mM MgCl2, 40 mM KCl, 5% glycerol, 1 mM DTT, 20 uL, room temperature 30 min, […] (7%/14%) […]
[3] = target: T1, hIRP1 (GST fusion); assay: EMSA; 240 ng hIRP1; 10 mM HEPES pH 7.6, 2 mM MgCl2, 40 mM KCl, 5% glycerol, 1 mM DTT, 20 uL, room temperature 30 min, […] (7%/14%) […]
[4] = target: T1, hIRP1 (GST fusion); assay: EMSA; 240 ng hIRP1; 10 mM HEPES pH 7.6, 2 mM MgCl2, 40 mM KCl, 5% glycerol, 1 mM DTT, 20 uL, room temperature 30 min, then heparin 0.63 ug/uL 10 min; native PAGE (7%/14%) in 0.5x TBE
[5] = target: T1, hIRP1 (GST fusion); assay: EMSA; 240 ng hIRP1; also bound at 100 ng; approx. equal to ET1+2+3; 10 mM HEPES pH 7.6, 2 mM MgCl2, 40 mM KCl, 5% glycerol, 1 mM DTT, 20 uL, room temperature 30 min, then heparin 0.63 ug/uL 10 min; native PAGE (7%/14%) in 0.5x TBE

GACCGUGCCCAUGAGCACGUC (structured_RNA) [ET2+3]
Kd [1]: 54 ± 13 nM

GACCGUGCCCGUGAGCACGUC (structured_RNA) [ET1+2+3]
Kd [2]: ~0.05 nM

GACCGUGCACCGUGAGCACGAAUC (structured_RNA) [ET1]
binding result [3]: no binding

GUUCGUCCUGCUCCGAGGGCAAC (structured_RNA) [IRE (-) negative control]
binding result [4]: no binding

GUUCGUCCUCAGUGCAGGGCAAC (structured_RNA) [eALAS IRE]
binding result [5]: binds

GACCGUGCACCAUGAGCACGAAUC (structured_RNA) [HCV IRES dIV wild type]
binding result [3]: no binding

Source: PMC2649033, “Comparison between the HCV IRES domain IV RNA structure and the Iron Responsive Element”
